In the NTF2 design screens of Basanta et al. (2020):

Assay: protease stability score; higher = more stable; yeast display proteolysis, trypsin and chymotrypsin;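 note: relative to predicted unfolded state with 0 unfolded-like and 1 meaning tenfold more protease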
For “DEDDEAAEMAVRFFIEILLTGNENIHSKLLDPNVKVNIGEFESIGRKEVEKTFKEFVHHMWIRHIEVHKWSVYDGQVDVESRLDGQVNGQHVNVEVLIIIVKINGKWFLRSLDFR”, the protease stability score was 1.71.
Sequence “SDDERMLHLLIKILIRAIQTGDEDTLLRQVDPHVRIDIDGRDIVGREDLIEFAKHWRFELREVNIRHMEIYGEYIHAEVEVRGKIIIGDKEVETTVDTRHIILKINGRWFFHSISVK” has a protease stability score of 1.26.
“HEMQEEAHIATELIIDTFKTGDEKKMRELFDPTPRLHQGDKRFHGREEVVHIISERIHRFGFNHIEVKTVRVQGDFIIVHGEKDVNGQRVEVILHIWKYDGRWEVHRIEIR” gave a protease stability score of 1.23.
“SEKHEDAHRFYEQYLEALRTGDEDLLTELIDPHVKVEIGDKHYHGRDWMIEILRKRKERFPGLKIIIILRRMHIIGDKVFMDVEVRVHQGEKTETHRFEMIVNKINGRWLVDSIHIE” showed a protease stability score of 2.08.
“DELEHRSQEAIEHIVHSMQTGNEEEIERNMDPNARIRVGNYHLHGRKEAVRWFNFFLTELRIHDIHIHDVKSQGEWIHIDGHIRGQINGQEHSVRTHIIVYKINGKWHDTSYHLS” gave a protease stability score of 0.723.
For “DDEEEIFKKAIEDFIRWERTGDWRQLVENLDPNTRVDVNGVYIHGRERIAEWIKHHIERVKNVKHHKHDEKVQGDKLHLDGVIIIDGVRFDVHLIIVVINGQYKHHEVRIR”, the protease stability score was 1.17.
With “HEDEKWMKHMLEMLIRSILTGDEETLHKLADPHVRLEINGQEYWGREQFTHAITQFIRHIRIDSIHVHDYHIQGEKVDFDMRSKFTINGQVDTSRLRVFILKVDGRWVVEEVIIR” the protease stability score was 2.27.
With “DEEHKHLREILRLMIEWLRTGDWEKIERNADPTTKMDYGEFKTHGREEYYRALMILIRHLGVDHITLHDFTFIDGKIYLDLIIHVNGQHERVTLEMHFVDGVIKRHHVREK” the protease stability score was 0.566.
With “DEDEHTIRELFKEFIIAQVTGDFERLHELLDPHARLEIDGVILHGREQWTKFMQHLLEYLGIKHVSFHLHHLDVQGEKVKLDSRVRLFFNGVHYEKRNIIIWRKFNGRWYLEESTIE” the protease stability score was 1.48.
Work on “SEEEEEAHKFIEDWRTALETGDFDSIKELIDPNVRLHIGDKDLVGREEWVRELRRRKERYKGLRLKVHIKHVDIFDGRLIVDAEIRIDIGDKHLHYRVHIFVHKVNGRWQMKRYEEE” yielded a protease stability score of 2.57.
Work on “SEDHRHAMEFIHHMVRAIHTGDEQILTEYLDPHVRIENENETLHGWEHRTEWMKRFDHIDRHIIVRHVEIQGNKVKVDAELRFRLHQGDFVEENEIRLRIIILKVDGRWVLHKVRFI” yielded a protease stability score of 1.35.
In the case of “DHLEELHETITKLWLEARRTGDEHLFRELMDPHVRIHIGDFEHHGREEALKAFDDIDRHLGVKHHHVDSWHVVNGQMIIDGRLHFDGQTRKVHIDLVIIDGRIEEIREEIR”, the protease stability score is reported as 0.617.
Sequence “DHEEHYSRIAVQEVLHRMLTGDEESLVKLADPHTRMTIGDKELHGWELVFEFLRDWVHKFKNIRLHIHQHEVQGDKIHIEIRVLIDGKEQDVKIHAEKIDGKWIYRQSHFR” has a protease stability score of 0.751.
In the case of “SELERQIERANRELVDIIYTGDEHLVDRMLDPRTLLTVGDKHTIGREEMIEWFKHHIREMRIRHSDTKDPHFINGVIDSHLYLDMEFDGRRFISRTRLIVLKIDGRWHIERITII”, the protease stability score is reported as 0.687.
For “SDEYRRNHDLARDYVELFRTGNEEHLYELADPNTMLHIGEFQSHGREHVYEWLEKIHRHWGWENVEFRLESMQVQGDYATIHGLHKFNGRFIRMDHIIVVINGRMESIRVEIR”, the protease stability score was 0.397.
For “DEEEKILEEFLEIWIEAVATGDEEVLEHLMDPNTRVHILVGDKTLDVHGMEFFKRHIKILGADHIEWRIRHKEVINGRIHTRGELILRQGDKERRIDVEIILVVVNGRLKNSEVRER”, the protease stability score was 1.43.
“DEDDRIHEWSMRWLIQSLRTGDEDMLREYIDPHTRVHVNGKEEHGREAADKLAKRIDHLHHLIIRSEERQGDKIIMDIERDILIDGVRINTRVSLILLKVNGRWFMKSIHFL” showed a protease stability score of 0.826.
With “DHVEHEVENVLRKTLHSFLTGDFELLHRLADPHVRSDINGVEIHGWEKLSKWILTLIEQVDHSEFDLKDIRLQGDFVRIHGELILRFNGKHIEIRVQSHVEKIDGRWVIHAVKLK” the protease stability score was 1.11.
“DEDEEMMEHLIRILVEVLKTGDWKELLKLADPHVRQDVNGVDIHGREDVSRRLANQAKELRLELHLQDVKVWNGRVDFDSRLHINQGEKYVQLHVRIITEKIDGRWRITEIHVR” gave a protease stability score of 1.62.
Sequence “DESEKMFKEIWRLLIESHRTGDEDSLERLADPHARMDFNGVEHHGRRELVRILSEHYKRVDHIHLIIRDMDVQGNKVTMRGELVLEFNGRRQTHDVTIILSKVDGVWYLHSIIVR” has a protease stability score of 1.53.
“DEEERAMEHMVRHLVDDIHTGDWRSLYRFLDPDVRLHVGDKRFHGRDTIVRLLLELLQTWGIDRIHSEVKHVHLQGEKIEAHTKDKYGDFEFSVLVDIFKIDGKWVIERREIS” gave a protease stability score of 1.08.
Work on “DEDTKLAKEAWRHLMENLHTGNEEIILHLVDPNAKFRYGEFEHHGRESLKWFRKRYDHIEVTHVEFHHVQVQGDKLIYHGTLEMSFEQGNKHEHWEYNVLLISRKINGRWIVKSIEVN” yielded a protease stability score of 0.953.
With “SEEEELALRFWHELTHYRETGDEESLLKYVDPHVRLDVNGKDIHGMEEIARFLVEIRVKIETHVHDIKLINGKIHMDVRLHIEFDIDGKNVKRRHESRVIVRKVNGKWIIKTFELT” the protease stability score was 0.53.
For “DEEDQDWERILEELLRSLLTGDEEFIRRLIDPNVRMHIKQGDKRINLHGRDAIEKLLELLHRRIKGVRIEIKRHDIQGDKIYVDGVINIDGKEFKIIIHIIVINGRLHTVSFETE”, the protease stability score was 1.9.
With “DEEDEHALRMARLWWKALTTGDEELLHKLMDPDVRVEINGVEIHGRETYERFLHKLRRDLGVKHIEIQFHHIELYGEKIIIEGTIFIRQGDKEHKERSIIILVVVDGRIKSSKIILL” the protease stability score was 2.19.
In the case of “SEHFEIALEILKLFLRSRHTGDWKTMEEMADPDVRLEVGEYTNHGWEEILRVLEELRFEIHFIHDHDVKFQGDKLHLDGHVDGVRRVDGQEVRIVSHIEIISVVVNGRAKSYSEHWV”, the protease stability score is reported as 0.631.
With “DEIHKDAHRFVELLLRLLRTGDEDSIEKLMDPHAKININGQERIGREETIELALHWRNDDHHIHDMITINGRVDVHGRVKGEFDGRHQEFTFRLIVLKVNGRWVNESHHYI” the protease stability score was 0.83.
“SEEEEIYKRIADLFLQIFSTGDEDRLHRLADPDVKWEYGDKKNVGMKDVIHYFEHIWMHVERSDNTDVDLQGNKARVDMRSDIRIEINGRELRIKVSVLIIIVKFNGRWTVHSLRIE” gave a protease stability score of 1.27.
For “DEDEENARRFIHELSRILETGDEERLDEMADPDVRIIIGEKHLHGREEFRKWMRHLLKRVKNMQIEVQLTSSEIVGEWVNLDTTLIIRVGDKHYEHRTVVIVLKIDGRWFLHQIHFK”, the protease stability score was 1.79.
In the case of “DEKDEFNHKIAHQFSESLHTGDFKLLESLFDPNVRSDINGREIIGMEELVHFWEEWKRKFPNAKERYRTESIEHQGEKTISNMRVDLHQGDFHLHREWRVEIHIIDGVVKEVRIENR”, the protease stability score is reported as 1.23.
For “TEEDKLIEKAWRLFLHILHTGDWEEFHRLADPHMREDVNGVNLIGREDVLRHFIRLIEELGVKHSHVKDFRIHIFNGVIHTIMDVRTEYGDKSVDVRIHLEIEKIDGRWFLRTARIRLT”, the protease stability score was 1.51.
“DETTQYIREILEIMRRTFHTGDFDTMLELMDPHARIVIGEKDEHGWEAAHHQMEYLLREWRIHDVEIRDVELQGDKIRVKLIVTGRIGDKLTLIDVELHVLKVNGKWYLKEISIR” showed a protease stability score of 1.19.
For “SELNEISEEAVEWFRKVLLTGNEDLLLNLADPNVRYEVGDKRRVGRESMIEQIQHFLHEMGINHIHSVHIRDVRIQGDYIEVDSELETTVNGQKMYIHMFLRARKIDGKWILDRIYVH”, the protease stability score was 1.02.
Sequence “SERHELVVRIVRLWIRMIRTGNEELYMRLADPHVKLDVNGREMHGRERSTEMWSELRIRHLHTEHIEVAENRFVVHGRLVTEFNGKEHDVKVVIHVEIVDGRIKEEEYHIL” has a protease stability score of 1.29.
Work on “DEDERHTKILIDLLLHNSHTGDEHVLRHLFDPNVKIVIGDKELIGREYADQFIKRVDVIDHIEIKDWHTIGDKVHFHGETEGVIDGRKVHTHVKLEMKKFDGRWLIHRIVIR” yielded a protease stability score of 1.95.
“SEEDEFVHEMVEILLKMFLTGDFQHFKRLADPHVMFVFNGKRFHGRHWVLDELIRFPNIKFELTHYEFDDINGVVHINIFGQRDVDGKNENVELHFVVEKVDGRWKIHRIIFRLR” gave a protease stability score of 1.11.
For “SEDEETSEELARRFSKAMKTGDFDHLVQQLDPNVRIDINGKEMIGRERFEEDMRRLNLSNIHFITRDIKVEIQGEMLHVRIDGHTRINGKDVKTHDIWIFEKIDGRWRLKEWIVHEE”, the protease stability score was 0.913.
In the case of “TEEEEKVMEIIEIILHVLKTGDEHLLENLIDPNARSEYGDKELHGREQILRFAWWVSHHIRLKHLHIDSMRVFNGRIEIHGHNIGEINGRESEIHLSLIMIKVDGQWKIHSMRFE”, the protease stability score is reported as 1.44.
For “DESDKYVHHVAELMIEWFLTGDEELFEEYADPNMRVIFENHENHGREEVMKHMHDWWRKVKNVRVEYRIRDVQFQGDKARIEGELIIRIDGRNVIREVEYHILVIDGVLHSYKLVYK”, the protease stability score was 1.47.
Work on “DEDEETLHEIVEILIRWLKTGDFDAVLKNLDPDARVEINGQELHGREQWYRYIHEEWKKVKNLTIIVSRMHVQGDKVMFEGEVHFDGQRRDVSIDMRVVNGRFRTIKKEVK” yielded a protease stability score of 1.28.
In the case of “DERQKELQEFAERLMRVLNTGDWEHTEQLLDPHVRVHFNGRDFHGWEEIVRFWTELRNQFDHFELRVDTVRIQGDKVENDGNAIFRIDGKELRHRITIHVFLINGKIKRVNVEIR”, the protease stability score is reported as 1.68.
“DEVEELIEENRRFFEESWMTGDEDSLRKNADPNVRLKVGEFHLIGREAFETWARQAVHMDSIEIHHMHFFDGVVHSITHFDGKFNGRKERHSIYLVELKVNGRWLNHEIRLK” gave a protease stability score of 0.511.
Work on “DEDEKDTHIWIKILEHIWDTGDEESFERLADPNVRFIQGEKELHGRERLIRFLSKYKNLTFRSEDYHIVNGRALVRITNHVNGRDLEMIIYYEKVNGQWHNKEIELR” yielded a protease stability score of 1.27.
With “TEDEKVNDLAMEEIYTLMLTGDEERMEELFDPNVRMIIDGRRHVGREVFKDHMREWRWERTHVEDQRTFDGRAILHTRVDVTVGDKRRDVRIHIISSKINGRWVIKRIIIE” the protease stability score was 0.758.
“HEDEQLAREFVEHLTENLRTGNEERIAELADPHVRVDIGDKHLHGWEWLRRRVRELRFHDLIIHHVEVIDGRIIFRGRMDGRVNGRHTQTEVRVELDKIDGRWTIRHIEIR” gave a protease stability score of 2.01.
“DETEEEVRKFVEESVKQNNTGNEDFAKRLADPNARFEQGDKELHGREEMRRVLVELWFEDYRIERLHVQGNKVEVEVVVHGVVNGKHQEVRVIIILLKINGRWVFRDVTVK” gave a protease stability score of 0.648.
“SEDEEFAKHASEIMSRILETGNEEETNRMMDPNVRLDWNGQDHVGREDVLRFRKLIIEILGIERIKVELHDVKTVNGRVHTDIIVNINGQEYRLRVFMTKVNGRWHVKFMEFE” showed a protease stability score of 1.7.
With “SEEERVLREAIKLLEHLLRTGDEKSFHELFDPDVKIEIGDKEVHGRERWVELYRTWGLENVESHVRVDDERIQGDKMEMDMQLDLRYDGRIDTTKVIILATKINGRWKLEHFEEE” the protease stability score was 0.028.
Work on “SEDEKNVEEMSRRLSHVLKTGDEESFSRLADPNARHIYNGRILHGWENFVRFLRHLWEHARIHELHVHDFEYQGDFMHVDSRLNGDINGQQMIFTTHLYNIKINGRWFLTEVKIV” yielded a protease stability score of 0.429.
Sequence “SDSEESSKVALELFKESVETGDERVSQELADPNYRVHYGDKTLHGREAWIRVILEMRWRTVTFKHLDFQGDKVRIEGEILGEYNGVETNFSTTLNVLKINGQWFLHSVHIQ” has a protease stability score of 1.49.
